Results published in paper PMC2150872 (The Journal of Cell Biology, 2001).

Tests used:
wt K5–K14 filaments = molecular target: T1, wt K5–K14 filaments (human, UniProt P13647 1-590; P02533 1-472); experiment: co-sedimentation
T1 sequence (looked up) 1: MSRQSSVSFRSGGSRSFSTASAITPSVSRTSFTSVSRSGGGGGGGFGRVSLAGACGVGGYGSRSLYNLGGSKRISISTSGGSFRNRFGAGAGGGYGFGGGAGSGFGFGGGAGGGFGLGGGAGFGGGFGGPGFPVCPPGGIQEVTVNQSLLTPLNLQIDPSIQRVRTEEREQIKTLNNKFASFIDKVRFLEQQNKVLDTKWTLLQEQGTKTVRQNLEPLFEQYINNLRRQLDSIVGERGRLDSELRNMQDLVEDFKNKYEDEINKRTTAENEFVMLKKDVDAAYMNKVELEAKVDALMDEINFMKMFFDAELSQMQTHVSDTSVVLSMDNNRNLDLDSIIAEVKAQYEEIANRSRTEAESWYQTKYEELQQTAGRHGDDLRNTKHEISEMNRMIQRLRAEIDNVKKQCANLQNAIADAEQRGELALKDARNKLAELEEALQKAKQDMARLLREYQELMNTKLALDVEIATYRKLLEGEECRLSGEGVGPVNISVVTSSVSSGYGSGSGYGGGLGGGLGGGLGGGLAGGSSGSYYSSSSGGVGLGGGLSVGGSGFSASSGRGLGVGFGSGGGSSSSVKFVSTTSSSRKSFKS
T1 sequence (looked up) 2: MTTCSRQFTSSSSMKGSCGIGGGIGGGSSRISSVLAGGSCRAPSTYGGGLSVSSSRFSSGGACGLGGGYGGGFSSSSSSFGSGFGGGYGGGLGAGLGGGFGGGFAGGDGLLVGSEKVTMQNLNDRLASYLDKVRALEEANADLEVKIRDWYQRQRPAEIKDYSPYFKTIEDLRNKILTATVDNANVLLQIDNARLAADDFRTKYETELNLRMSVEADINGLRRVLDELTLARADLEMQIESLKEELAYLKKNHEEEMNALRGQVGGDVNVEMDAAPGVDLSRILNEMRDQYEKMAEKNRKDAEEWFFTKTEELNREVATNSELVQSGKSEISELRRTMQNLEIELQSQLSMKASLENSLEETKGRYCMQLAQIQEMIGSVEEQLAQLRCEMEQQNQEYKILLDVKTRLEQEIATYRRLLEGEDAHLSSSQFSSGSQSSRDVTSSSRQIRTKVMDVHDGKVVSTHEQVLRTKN

keratin 5 = molecular target: T2, keratin 5 (human, UniProt P13647 1-590); experiment: filament reconstitution
T2 sequence (looked up): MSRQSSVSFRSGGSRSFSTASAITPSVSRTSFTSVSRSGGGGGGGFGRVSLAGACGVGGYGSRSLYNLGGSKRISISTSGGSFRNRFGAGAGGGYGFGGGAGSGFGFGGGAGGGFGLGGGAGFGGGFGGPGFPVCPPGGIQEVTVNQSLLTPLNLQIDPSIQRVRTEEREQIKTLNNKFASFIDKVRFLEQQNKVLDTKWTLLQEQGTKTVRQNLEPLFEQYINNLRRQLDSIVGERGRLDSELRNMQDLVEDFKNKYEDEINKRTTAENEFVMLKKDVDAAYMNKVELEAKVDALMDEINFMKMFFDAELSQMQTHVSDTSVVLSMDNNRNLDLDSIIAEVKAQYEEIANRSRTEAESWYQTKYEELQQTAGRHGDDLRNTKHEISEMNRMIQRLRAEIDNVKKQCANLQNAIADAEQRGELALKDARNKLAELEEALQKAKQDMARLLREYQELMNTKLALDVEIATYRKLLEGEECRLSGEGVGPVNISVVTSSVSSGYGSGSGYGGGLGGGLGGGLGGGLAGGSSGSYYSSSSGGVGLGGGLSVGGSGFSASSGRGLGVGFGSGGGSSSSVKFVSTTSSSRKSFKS

B1: His-T14 (His-tagged nonhelical tail domain of human keratin 14) (domain or fragment)
chain: SSSQFSSGSQSSRDVTSSSRQIRTKVMDVHDGKVVSTHEQVLRTKN
B1 gave a Kd (wt K5–K14 filaments) of about 2 µM.

B2: keratin 19 (natural protein, human, UniProt P08727 1-400, looked up)
chain: MTSYSYRQSSATSSFGGLGGGSVRFGPGVAFRAPSIHGGSGGRGVSVSSARFVSSSSSGAYGGGYGGVLTASDGLLAGNEKLTMQNLNDRLASYLDKVRALEAANGELEVKIRDWYQKQGPGPSRDYSHYYTTIQDLRDKILGATIENSRIVLQIDNARLAADDFRTKFETEQALRMSVEADINGLRRVLDELTLARTDLEMQIEGLKEELAYLKKNHEEEISTLRGQVGGQVSVEVDSAPGTDLAKILSDMRSQYEVMAEQNRKDAEAWFTSRTEELNREVAGHTEQLQMSRSEVTDLRRTLQGLEIELQSQLSMKAALEDTLAETEARFGAQLAHIQALISGIEAQLGDVRADSERQNQEYQRLMDIKSRLEQEIATYRSLLEGQEDHYNNLSASKVL
B2: binds (keratin 5).
